Like-named read-outs stand apart in the source and are kept apart here.
Legend:
[1] = cited from earlier work
[2] = Phase 3 Study: daratumumab serum pharmacokinetics; format: in vivo, human; details: daratumumab 16 mg/kg in D-VMP
From the text: (§1) Clinical pharmacology information provided herein focuses on data from subjects with evaluable pharmacokinetic data treated with D-VMP in the Phase 3 Study (n=342), and supportive information derived from the Phase 1b Study in the cohort of subjects treated with D-VMP having evaluable pharmacokinetic data (n=11). In addition, an updated population pharmacokinetics (PPK) analysis including data from the Phase 3 and Phase 1b Studies and exposure-response (efficacy and safety) analyses including data from Phase 3 Study were conducted.

[3] = Pooled infusion-related reaction analysis, 1,166 subjects treated with daratumumab 16 mg/kg IV; format: in vivo, human
[4] = in vivo
From the text: The first subject in this cohort started treatment with D-VMP. Subjects in the D-VMP cohort of the Phase 1b Study received treatment for a maximum of 9 cycles. Long-term follow-up for this cohort continued until death, loss to follow up, withdrawal of consent, or study end, whichever occurred first. The primary objective for the Phase 1b Study was to evaluate safety and tolerability of the combination regimen. Efficacy assessments (primary efficacy endpoint, overall response rate (ORR)) were performed per International Myeloma Working Group (IMWG) guidelines (Kumar S, et al. Lancet Oncol. 2016;17(8):e328-e346, hereby incorporated by reference in its entirety), and a computerized, validated algorithm as described above was utilized for determining response based on IMWG criteria.
as §1

[5] = mean±SD, cited from earlier work
[6] = in vivo; remark: listed apart in the source

Q: Which “mean maximum trough concentration” value ([1]; after 8 weekly doses, monotherapy) does the source give for daratumumab here?
A: The value was 573.5 µg/mL.

Q: And the “mean end-of-infusion concentration following the first dose” value ([1]; daratumumab monotherapy, Phase 2 study)?
A: Its value is 312.5 µg/mL.

Q: What about the “increase in daratumumab compared with the first dose” value ([1]; end of 8 weekly doses of monotherapy) of the same substance?
A: The value was 2.9 fold.

Q: And the “mean end-of-infusion concentration following the first dose” value [2]?
A: Its value is 266.7 µg/mL.

Q: And the “Grade 4 IRRs” value ([3]; 2 of 1,166 subjects)?
A: Its value is 0.2%.

Q: What about the “incidence of any grade IRR” value ([3]; first infusion, pooled 1,166 subjects) of the same substance?
A: Its value is 40%.

Q: What about the “incidence of infusion modification due to IRRs” value ([3]; pooled) of the same substance?
A: The value was 37%.

Q: What about the “incidence of any grade IRR” value ([3]; second infusion, pooled) of the same substance?
A: Its value is 2%.

Q: What about the “subjects with a Grade 3 IRR” value ([3]; second or subsequent infusion, pooled) of the same substance?
A: Its value is < 1%.

Q: What about the “incidence of any grade IRR” value ([3]; subsequent infusions, pooled) of the same substance?
A: Its value is 4%.

Q: And the “mean end-of-infusion concentration following the first dose” value [4]?
A: The value was 332.2 µg/mL.

Q: What about the half-life ([5]; monotherapy study data) of the same substance?
A: Its half-life is 18 ± 9 days.

Q: What about the half-life ([5]; previous combination therapy study data) of the same substance?
A: The half-life was 23.3 ± 11.8 days.

Q: And the “model-derived half-life associated with the CL” value ([6]; human)?
A: The value was “approximately 22.1±9.7 days”.

Q: And the “estimated Vi value” [6]?
A: The value was “approached plasma volume”.

Q: And the “time to apparent steady state” value [6]?
A: Its value is “approximately 5 months”.

Source: patent publication US20220062415A1, “Methods of Treating Multiple Myeloma” (Janssen Biotech, Inc., priority 2018, published 2022)
